# B1: 1E11: Cathepsin S inhibitory monoclonal antibody; VH Seq ID No: 7, VL Seq ID No: 8, CDRs Seq ID Nos: 1-6 (antibody, listed as Mus musculus, V domains shown)
# VH: VQLQESGGVLVKPGGSLKLSCAASGFAFSSYDMSWVRQTPEKRLEWVAYITTGGVNTYYPDTVKGRFTISRDNAKNTLYLQMSSLKSEDTAMYYCARHSYFDYWGQGTTVTVSS
# VL: DVLMTQTPLSLPVSLGDQASISCRSSQSLVHSNGNTYLHWYLQKPGQSPKLLIYKVSNRFSGVPDRFSGSGSGTDFTLKISRVEAEDLGVYFCSQTTHVPPTFGSGTKLEIKR
# modifications: VH domain amino acid sequence; VL domain amino acid sequence
# Columns and labels:
# CatS [1] = molecular target: T1, CatS (Homo sapiens, UniProt P25774); test: fluorimetric assay of CatS proteolytic activity; type: biochemical
# T1 sequence (P25774 115-331): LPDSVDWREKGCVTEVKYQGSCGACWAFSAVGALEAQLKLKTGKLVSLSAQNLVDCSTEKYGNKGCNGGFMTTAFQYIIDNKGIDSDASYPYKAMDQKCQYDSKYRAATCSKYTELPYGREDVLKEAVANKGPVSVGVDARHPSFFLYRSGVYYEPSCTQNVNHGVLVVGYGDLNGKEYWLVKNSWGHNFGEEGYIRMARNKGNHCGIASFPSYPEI
# From the text: The ability of an agent, for example a small molecule or antibody, to inhibit the proteolytic activity of Cathepsin S may be tested using any suitable method. For example a fluorimetric assay may be used. In such an assay, any suitable fluorigenic substrate may be used, for example Cbz-Phe-Arg-AMC. An agent is considered to inhibit the proteolytic activity of Cathepsin S if it has the ability to inhibit its activity by a statistically significant amount. For example, in one embodiment, an agent for use as the Cathepsin S inhibitor is able to inhibit the […] activity by at least 10%, for example at least 25%, 50%, 70%, 80% or 90%, when compared to an appropriate control antibody.
# As shown in co-pending PCT application WO2006/109045, the contents of which are incorporated herein by reference, which claims priority from GB0507219.4 and GB0507272.3, this antibody has potent inhibitory activity.
# (§1) The F47 Cathepsin S 1C11 1E11 1E4 cell line which is the hybridoma cell line that produces the IE4 antibody has been deposited with the European Collection of Cell Cultures (“ECACC”) under Accession No. 15072905.
# [2] = tested on: HCT116 colorectal carcinoma cell line; details: shown in co-pending WO2006/109045; cited from earlier work
# other cathepsins = test: binding specificity / cross-reactivity with other cathepsins; details: in particular those with the greatest homology to CatS
# From the text: as §1
# [3] = tested on: MCF 7 breast cancer cell line; details: shown in co-pending WO2006/109045; cited from earlier work
# [4] = tested on: PC3 prostate carcinoma cell line; details: shown in co-pending WO2006/109045; cited from earlier work
# [5] = tested on: human microvascular endothelial cells (HMECs); test: Matrigel capillary-like tube formation assay; type: cell-based
# Method: The effect of the CatS mAb on endothelial cell tube formation was assessed as follows. Two hundred microliter of Matrigel (10 mg/ml) was applied to pre-cooled 48-well plates, incubated for 10 min at 4° C. and then allowed to polymerize for 1 h at 37° C. Cells were suspended in endothelial growth cell medium MV (Promocell), containing 200 nM of the appropriate antibody. Five hundred microliter (1×10^5 cells) were added to each well. As controls, cells were incubated with vehicle-only control medium containing the appropriate volumes of PBS. After 24 h incubation at 37° C. and 5% CO2, cells were viewed using a Nikon Eclipse TE300 microscope.
# Using the Matrigel morphogenesis assay described by Grant et al (Cell 1989 Sep. 8; 58 (5): 933-43), capillary-tubule formation assays were performed with human microvascular endothelial cells (HMECs) cultured on Matrigel enabling the endothelial cells form tube-like structures, with invasive sprouts extending from individual cells to form contacts with nearby endothelial cells. FIG. 15a illustrates the results when the HMEC cells were cultured in the presence of two CatS antibodies (1E11 and 1E4) or isotype control.
# [6] = molecular target: T2, CatS on the cell surface of HCT116 cells (Homo sapiens, UniProt P25774); test: flow cytometry staining of HCT116 cells with CatS monoclonal antibody; type: binding; details: HCT116 cells stained for CatS
# T2 construct: CatS expression is localised to the cell surface on HCT116 cells; endogenous in cells; host or cells: HCT116
# T2 sequence (P25774 115-331): as above
# Method: Cells were collected from tissue culture plates using a scraper and washed ×3 in PBS (0.01% tween) (5 minute centrifugation at 1500 rpm). Approximately 5×10^5 cells were placed in appropriately labelled tubes. Cells were incubated with 50 μl anti-CatS or Isotype control (Sigma, UK) for 1 hour at room temperature. Following incubation each tube was washed ×3 in PBS (0.01% tween) (5 minute centrifugation at 1500 rpm). Samples were then incubated with a 1 in 15 dilution of FITC-conjugated goat anti-mouse secondary antibody (Sigma, UK) (samples kept in dark at room temperature). Following incubation each tube was washed ×3 in PBS (0.01% tween) (5 minute centrifugation at 1500 rpm). Samples were resuspended in 0.5 ml of PBS prior to immediate analysis using the Cyan flow cytometer (Dako, UK).
# HCT116 cells were stained for CatS expression using a CatS monoclonal antibody as before. Cells were grown on glass coverslips, fixed using ice-cold acetone and incubated with CatS antibody at a 1:100 dilution. Coverslips were rinsed with PBS and incubated with antimouse AlexaFluor® 488 labelled secondary antibody. Coverslips were washed again using PBS, mounted using PermaFluor mounting media and visualised by confocal microscopy.
# The presence of Cathepsin S on the cell surface of tumour cells was further confirmed using confocal microscopy. […]
# [7] = tested on: U251mg astrocytoma cell line; details: shown in co-pending WO2006/109045; cited from earlier work
# [8] = tested on: MDMB231 breast cancer cell line; details: shown in co-pending WO2006/109045; cited from earlier work
# CatS [9] = molecular target: T1, CatS; details: fluorigenic substrate; shown in co-pending WO2006/109045; cited from earlier work
# rat aortic ring segments = test: ex vivo rat aortic arch (ring) assay in Matrigel; type: cell-based
# Method: Male Wistar rats are euthanised and the thoracic aorta is aseptically removed and sectioned into […] thick rings. The rings are washed ten times in sterile medium to remove any bacteria and embedded into Matrigel on 24 well plates. The wells are supplemented with 2 ml of medium and increasing concentrations of antibodies. The plate is incubated for 8 days and post incubation the Matrigel and rings are fixed in 4% PBS buffered paraformaldehyde and stored in PBS. The extent of vessel development is blindly assessed microscopically by an independent investigator and quantified using a calibrated eyepiece graticule (1 mm/100 μm graduation) at 20× magnification (Olympus BX 50). The extent of vessel length, maximum vessel length and number of vessels in each field of view is measured and compared to time matched sham controls and the % inhibition calculated.
# To evaluate further the role of CatS in angiogenesis, an ex vivo rat aortic arch assay was performed. Sections of the aorta (1 mm) were cultured within a thin layer of Matrigel in the presence of the inhibitory antibody and appropriate controls. The formation of tube-like vessels from the aorta were monitored and quantified after 7 days by measuring the reduction in the number of vessels, mean vessel length and maximum vessel length compared to controls.
# [10] = tested on: HCT116+/+ human colorectal adenocarcinoma xenograft; test: HCT116+/+ xenograft model, immunohistochemistry of tumour sections; type: in vivo, SCID mice; details: CatS 1E11+5Fu (IC50) vs Mouse IgG1+5-Fu control
# Method: Briefly, sections were deparaffinised by passing from xylene to alcohol to running water. Endogenous peroxidase activity was blocked by incubation in 3% H2O2 in methanol for 10 min. Sections were then boiled in citrate buffer, pH6.0, for 22 min. Incubation in 5% normal horse serum blocking solution was carried out for 20 min at room temp. Sections were incubated with primary antibody at 4° C. overnight. Appropriate isotype controls were used at the same dilutions as primary antibodies. […]
# [11] = examination of major mouse organs after treatment in xenograft model; type: in vivo, SCID mice
# Method: 6-8 week old female SCID mice were implanted with 2×10^6 HCT116+/+ human colorectal adenocarcinoma cells into each flank. […] They were mixed with equal volumes of matrigel to give a final concentration of 5×10^6 cells/ml. Mice were randomly separated into treatment groups on day 5 after implantation and treated with various regimes of CatS Mab or Isotype control Mab (10 mg/kg) with/without 5Fu (15 mg/kg daily or 70 mg/kg twice weekly). All drugs were administered through a bolus injection. Animals were sacrificed at various time points and tumours were removed for analysis.
# Paraffin embedding of formalin-fixed xenograft/organ tissue samples, section cutting and H&E (haematoxylin and eosin) staining of tissue sections were performed as previously described. Immunostaining was performed using the avidin-horseradish peroxidase method (Vectorlabs ABC Kit).
# All major mouse organs were examined for architectural changes following treatment.
# [12] = repeat experiment, up to 10 μg/ml
molecule,measurement,setting,value
B1,ability to inhibit the catalytic activity of CatS,CatS [1],can specifically inhibit the activity of CatS
same,inhibition of tumour cell invasion,[2],potently inhibit tumour cell invasion
same,cross-reactivity with other cathepsins,other cathepsins,no cross-reactivity with other cathepsins
same,inhibition of tumour cell invasion,[3],potently inhibit tumour cell invasion
same,inhibition of tumour cell invasion,[4],potently inhibit tumour cell invasion
same,tube formation of HMEC cells on Matrigel,"[5]; antibody 200 nM, 24 h, vs vehicle-only and isotype control",almost completely abolished
same,capillary tubule formation in Matrigel assay,"[5]; summary statement, no concentration given",inhibit capillary tubule formation
same,increase in fluorescent intensity in comparison to the isotype control,[6],38%
same,inhibition of tumour cell invasion,[7],potently inhibit tumour cell invasion
same,inhibition of tumour cell invasion,[8],potently inhibit tumour cell invasion
same,inhibition of proteolytic activity of CatS,CatS [9],inhibits the proteolytic activity of CatS
same,reduction in maximum vessel length,rat aortic ring segments; [12],60%
same,reduction in mean vessel length,rat aortic ring segments; [12],60%
same,reduction in total vessel number,rat aortic ring segments; [12],70%
same,reduction in maximum vessel length,rat aortic ring segments; up to 600 nM,greater than 80%
same,reduction in mean vessel length,rat aortic ring segments; up to 600 nM,greater than 80%
same,reduction in total vessel number,rat aortic ring segments; up to 600 nM,greater than 80%
same,caspase 3 activity in tumour tissue (anti-cleaved caspase-3 staining),[10],increase in caspase 3 activity
same,architectural / pathological change of major mouse organs,[11]; nine-day drug regime CatS 1E11+5Fu (IC50),No signs of pathological change
same,adverse toxic effect,[11]; repeated treatment with 10 mg/kg in combination with chemotherapy,no adverse toxic effect

# Source: US9321838B2, “Therapy targeting cathepsin S” (Fusion Antibodies Limited, priority 2006, dated 2016)
